Here are results for 1 molecule from US20220235139A1 (ROCHE DIAGNOSTICS OPERATIONS, published 2022).

The target of experiment [1] is T1, TtSlyD-CSF1R.
T1 construct: also called 21 kDa TtSlyD-CSF1R protein
T1 chain: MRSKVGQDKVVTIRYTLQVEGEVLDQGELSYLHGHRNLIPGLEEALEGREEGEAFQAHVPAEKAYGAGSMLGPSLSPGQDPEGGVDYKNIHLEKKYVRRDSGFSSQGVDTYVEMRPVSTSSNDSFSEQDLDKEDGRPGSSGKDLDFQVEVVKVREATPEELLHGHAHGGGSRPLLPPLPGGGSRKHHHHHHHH
As to the kind of experiment: SPR (Biacore), captured antibody, single injection of 300 nM analyte. Here is the method:
A Biacore B3000 instrument (GE Healthcare) was used to kinetically assess the rabbit antibodies for kinetics and binding specificity for TtSlyD-CSF1R. A CMS series sensor was mounted into the system and was normalized in HBS-ET buffer (10 mM HEPES pH 7.4, 150 mM NaCl, 3 mM EDTA, 0.005% w/v Tween 20) according to the manufacturer's instructions. The sample buffer was the system buffer supplemented with 1 mg/ml CMD (Carboxymethyldextran, Sigma #86524). The system operated at 25° C. 10000 RU GAR<F(ab)2> (relative units of goat anti rabbit F(ab)2/Jackson Laboratories, cat. No. 100018) were immobilized according to the manufacturer's instructions using EDC/NHS chemistry on all flow cells. The sensor was saturated with 1M ethanolamine. The binding activity of the antibodies against the analytes were kinetically tested. […] Antibodies were captured by a 2 min injection at 10 μl/min of cell culture HEK supernatant diluted 1:2 in sample buffer. The flow rate was set to 100 μl/min. The analyte was injected at different concentration steps of 0 nM, 1.1 nM, 3.7 nM, 11.1 nM, […], 100 nM and 300 nM for 2 min. The dissociation was monitored for 5 min. Kinetic signatures were monitored and evaluated using the Biaevaluation Software and a binary Langmuir Fitting model with RMAX local. […]
(Surface plasmon resonance follows binding to a sensor surface in real time, without labels.)

Experiment [2] has as its target T2, SEQ ID NO 20: K-N-I-H-L-E-K-K-pY-V-R-R-D-S-G.
T2 sequence (peptide, phosphotyrosine (pY) at position 9): KNIHLEKKYVRRDSG
Put plainly: CelluSpots peptide array, 15-mer CSF-1R peptides in duplicate.

In experiment [3] the target is T3, SEQ ID NO 19: pY-K-N-I-H-L-E-K-K-pY-V-R-R-D-S.
T3 sequence (peptide, phosphotyrosine (pY) at positions 1 and 10): YKNIHLEKKYVRRDS
The description is as above.

Experiment [4] has as its target T4, SEQ ID NO: 13: P-E-G-G-V-D-pY-K-N-I-H-L-E-K-K.
T4 sequence (peptide, phosphotyrosine (pY) at position 7): PEGGVDYKNIHLEKK
The description is as above.

The target of experiment [5] is T5, SEQ ID NO: 14: E-G-G-V-D-pY-K-N-I-H-L-E-K-K-pY.
T5 sequence (peptide, phosphotyrosine (pY) at positions 6 and 15): EGGVDYKNIHLEKKY
Described as above.

The target in experiment [6] is T6, SEQ ID NO 21: N-I-H-L-E-K-K-pY-V-R-R-D-S-G-F.
T6 sequence (peptide, phosphotyrosine (pY) at position 8): NIHLEKKYVRRDSGF
The description is as above.

The target of experiment [7] is T7, SEQ ID NO 17: V-D-pY-K-N-I-H-L-E-K-K-pY-V-R-R.
T7 sequence (peptide, phosphotyrosine (pY) at positions 3 and 12): VDYKNIHLEKKYVRR
The experiment is described as above.

Experiment [8] concerns the target T8, SEQ ID NO 16: G-V-D-pY-K-N-I-H-L-E-K-K-pY-V-R.
T8 sequence (peptide, phosphotyrosine (pY) at positions 4 and 13): GVDYKNIHLEKKYVR
The description is as above.

In experiment [9] the target is T9, SEQ ID NO 18: D-pY-K-N-I-H-L-E-K-K-pY-V-R-R-D.
T9 sequence (peptide, phosphotyrosine (pY) at positions 2 and 11): DYKNIHLEKKYVRRD
The description is as above.

The target in experiment [10] is T10, SEQ ID NO 15: G-G-V-D-pY-K-N-I-H-L-E-K-K-pY-V.
T10 sequence (peptide, phosphotyrosine (pY) at positions 5 and 14): GGVDYKNIHLEKKYV
The description is as above.

For experiment [11], the target named is T11, human CSF-1R (Colony stimulating factor 1 receptor) (human, UniProt P07333 20-972, limits assumed).
T11 construct: also called M-CSF receptor; c-fms
As to the kind of experiment: Western blot of cell lysates: lane 2 NIH3T3 wt, lane 3 NIH 3T3+CSF1 K4, lane 4 NIH 3T3+CSF1 K8 [continued]. On the technique in general: A western blot detects proteins with antibodies after separation by electrophoresis.

Experiment [12] addresses T12, phosphorylated TtSlyD-CSF1R.
T12 sequence (chain, tyrosines phosphorylated in vitro with Src (1-530) kinase; positions not stated): T1 chain
As to the kind of experiment: SPR (Biacore), antibody captured on anti-rabbit F(ab)2, analyte in solution, Langmuir fit, 25 C.

T11 sequence (P07333 other isoform, or with tags, fused parts or gaps limits assumed): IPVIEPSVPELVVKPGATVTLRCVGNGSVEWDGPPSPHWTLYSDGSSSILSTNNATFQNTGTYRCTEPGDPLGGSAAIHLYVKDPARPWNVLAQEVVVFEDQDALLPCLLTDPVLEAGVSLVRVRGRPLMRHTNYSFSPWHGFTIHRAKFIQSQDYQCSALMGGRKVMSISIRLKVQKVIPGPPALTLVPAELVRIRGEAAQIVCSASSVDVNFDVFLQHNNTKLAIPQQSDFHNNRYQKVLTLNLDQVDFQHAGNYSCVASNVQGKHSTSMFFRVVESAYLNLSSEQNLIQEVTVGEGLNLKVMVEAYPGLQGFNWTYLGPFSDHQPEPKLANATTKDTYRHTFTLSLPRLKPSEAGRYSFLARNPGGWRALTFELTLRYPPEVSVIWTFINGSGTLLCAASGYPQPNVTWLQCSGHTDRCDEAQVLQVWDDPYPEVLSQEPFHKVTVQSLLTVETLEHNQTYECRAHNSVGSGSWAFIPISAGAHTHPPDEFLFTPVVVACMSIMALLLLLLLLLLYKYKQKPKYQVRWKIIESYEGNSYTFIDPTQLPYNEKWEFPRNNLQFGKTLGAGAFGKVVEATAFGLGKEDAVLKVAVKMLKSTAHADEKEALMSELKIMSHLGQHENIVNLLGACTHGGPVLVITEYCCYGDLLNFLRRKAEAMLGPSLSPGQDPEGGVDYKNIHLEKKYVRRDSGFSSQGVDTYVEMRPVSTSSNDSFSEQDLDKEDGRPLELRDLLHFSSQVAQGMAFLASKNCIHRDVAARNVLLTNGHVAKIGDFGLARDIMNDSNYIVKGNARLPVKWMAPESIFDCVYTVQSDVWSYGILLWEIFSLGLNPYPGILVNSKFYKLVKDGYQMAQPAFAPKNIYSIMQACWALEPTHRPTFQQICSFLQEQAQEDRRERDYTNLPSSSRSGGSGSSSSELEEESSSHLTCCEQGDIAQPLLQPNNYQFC

B1: antibody 1H11 (antibody, V domains shown)
VH: QSVEESGGRLVTPGTPLTLTCTASGFSLSRYWMTWVRQAPGKGLEYIGWIDRSGNTYFADWAKGRFTGSKTSTTRDLKITSPTTEDTATYFCGRGGQNNGYDLWGPGTLVTVSS
VL: AAVLTQTPSPVSAAVGGTVTISCQSSESVYSNNFLSWYQLKPGQRPRLLIYEASKVASGVPSRFSGSGSGTQFTLTISGVQCDDAATYYCAGGYDVSDDAFGGGTEVLVK
notes: Rabbit full length IgG made recombinantly in FreeStyle 293-F cells; For SPR it was captured from HEK culture supernatant on goat anti-rabbit F(ab)2; no sentence ties 1H11 to them directly; also called rabbit monoclonal anti-CSF-1R antibody
What is called Kd is the constant that tells how readily two partners part at equilibrium. Read a low Kd as higher affinity. As a reminder, the koff is a measure of how fast the partners let go of each other. A low value points to slow dissociation. In general, kon refers to the rate constant with which the complex forms. With B1, the binding result in experiment [1] and in [11] was “binds” in each case. Further, the % Signal in experiment [2] is 48.9%; in [3], 62.6%; in [4], 100%; in experiment [5], 55.3%; in [6], 45.7%; in experiment [7] it was 91.8%. Further, the % Signal in experiment [8] stood at 73.9%; in [9], 49.8%; in experiment [10] it was 57.1%. Besides, the Kd in [12] is 0.2 nM. In experiment [12], this molecule came in with an off-rate constant (koff) of 0.000122 s⁻¹. In experiment [12], the association rate constant (kon) came to 578000 M⁻¹ s⁻¹.
